Measurements as given in PMC5217673, “The Shigella Virulence Factor IcsA Relieves N-WASP Autoinhibition by Displacing the Verprolin Homology/Cofilin/Acidic (VCA) Domain*” (The Journal of Biological Chemistry, 2016).
No end group written: not given here.

T1: IcsA passenger domain, IcsA(53–758), FLAG-tagged (Shigella flexneri, UniProt Q7BCK4 53-758)
T1 construct: IcsA (VirG) of Shigella flexneri, gene amplified from the virulence plasmid pWR100; Expressed as full-length IcsA from pETDuet-2 with IcsP; monomer by SEC-MALS; also called FLAG-IcsA; VirG; source: E. coli C43 (DE3), full-length IcsA co-expressed with IcsP; secreted passenger domain purified from medium (anti-FLAG M2 beads, SEC); not shown: FLAG, N-terminal, kept
T1 sequence: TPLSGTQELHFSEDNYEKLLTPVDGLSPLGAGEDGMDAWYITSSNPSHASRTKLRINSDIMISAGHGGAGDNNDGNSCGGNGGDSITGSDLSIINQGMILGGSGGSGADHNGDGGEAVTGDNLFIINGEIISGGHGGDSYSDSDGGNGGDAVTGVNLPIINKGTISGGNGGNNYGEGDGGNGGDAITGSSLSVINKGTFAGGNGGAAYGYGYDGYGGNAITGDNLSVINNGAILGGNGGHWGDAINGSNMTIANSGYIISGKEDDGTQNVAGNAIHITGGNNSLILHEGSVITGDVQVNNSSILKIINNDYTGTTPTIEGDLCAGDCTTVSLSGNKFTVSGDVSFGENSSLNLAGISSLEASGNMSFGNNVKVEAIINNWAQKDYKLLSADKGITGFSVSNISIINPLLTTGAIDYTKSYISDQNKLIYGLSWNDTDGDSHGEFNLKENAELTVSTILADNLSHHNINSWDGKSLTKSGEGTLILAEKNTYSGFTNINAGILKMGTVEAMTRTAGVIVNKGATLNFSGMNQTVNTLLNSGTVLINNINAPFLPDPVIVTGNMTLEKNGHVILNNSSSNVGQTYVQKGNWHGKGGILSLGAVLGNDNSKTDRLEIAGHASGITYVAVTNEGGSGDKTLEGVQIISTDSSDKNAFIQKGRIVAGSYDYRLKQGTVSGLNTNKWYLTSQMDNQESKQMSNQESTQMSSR

B1: GST-N-WASP WH1 + GBD (residues 30–274) (domain or fragment)
chain: LFTFLGKKCVTMSSAVVQLYAADRNCMWSKKCSGVACLVKDNPQRSYFLRIFDIKDGKLLWEQELYNNFVYNSPRGYFHTFAGDTCQVALNFANEEEAKKFRKAVTDLLGRRQRKSEKRRDPPNGPNLPMATVDIKNPEITTNRFYGPQVNNISHTKEKKKGKAKKKRLTKADIGTPSNFQHIGHVGWDPNTGFDLNNLDPELKNLFDMCGISEAQLKDRETSKVIYDFIEKTGGVEAVKNELRR
notes: N-WASP from the WH1 domain to the end of the GBD, residues 30-274; also called GST-WH1 + GBD; extended N-WASP construct; source: E. coli Rosetta(DE3), purified (glutathione-Sepharose, SEC)
B2: Fluorescein-labelled N-WASP VCA peptide (residues 462–481) (peptide)
peptide: fluorescein-APTSGIVGALMEVMQKRSKA
notes: also called labeled peptide; source: synthetic peptide (Genscript)
B3: GST-N-WASP extended GBD (residues 156–274) (domain or fragment)
chain: NLPMATVDIKNPEITTNRFYGPQVNNISHTKEKKKGKAKKKRLTKADIGTPSNFQHIGHVGWDPNTGFDLNNLDPELKNLFDMCGISEAQLKDRETSKVIYDFIEKTGGVEAVKNELRR
notes: Cloned in pGEX-6P-1 or pGEX-4T-2; also called GST-GBD; GBD alone; source: E. coli Rosetta(DE3), purified (glutathione-Sepharose, SEC)

Legend:
Settings in all cases: both partners purified
[1] = molecular target: T1, IcsA passenger domain, IcsA(53–758), …; experiment: fluorescence polarisation; competition: preformed complex of GST-GBD or GST-WH1 + GBD (5 μM) and fluorescein-VCA peptide (0.1 nM), IcsA added at 0.01–16 μM, 25 °C; one-site equilibrium model
[2] = molecular target: B3; experiment: fluorescence polarisation; direct binding: fluorescein-VCA peptide 2 nM, GST-GBD or GST-WH1 + GBD 0.1–200 μM, 25 °C, TBS, 1 mM DTT; one-site equilibrium model
[3] = molecular target: B1; experiment: as above

Binder B1 has a Kd [1] of 0.05 µM.

In the case of B2, the Kd [2] is reported as 28.8 µM and the Kd [3] is reported as 52.4 µM.

Binder B3 has a Kd [1] of 0.32 µM.
